The record followed here is the RNAGym collection of RNA variant scans (doi:10.1093/nar/gkz1192).

The labels stand for the following.
B1: CPEB3 Ribozyme (parent)
chain: UAACAGGGGGCCACAGCAGAAGCGUUCACGUCGCAGCCCCUGUCAGAUUCUGGUGAAUCUGCGAAUUCUGCUGUAUAUCUC

Variants of B1 are the subject of the data set. In words: self-cleavage, relative activity (ratio to wild type); higher = more cleavage; in vitro, sequencing. The procedure, abridged: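 Libraries of CPEB3 self-cleaving ribozyme mutants came from rounds of error-prone PCR and carried barcodes, which DNA sequencing matched to variants. In vitro transcription used T7 RNA polymerase at 37°C for 5 hours, with a further 15 min in DNase I before EDTA stopped the reaction; the ribozymes cleaved during both steps. The RNA was reverse transcribed with template switching and sequenced on Illumina. Relative activity is the cleaved/total read fraction of a variant divided by that of the unmutated ribozyme, averaged over three batches with at least 5 reads.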
Take UAACAGGGGGCCACAGCAUAAGCGUUCACGUCGCAGCCCCAGUCAGAUUCUGGUGAAUCUGCGAAUUCUGCUGUAUAUCUC: the self-cleavage came to 0.22.
In the case of UAACAGGGGGCCACAGCAUAAGCGUUCACGUCGCAGCCCCCGUCAGAUUCUGGUGAAUCUGCGAAUUCUGCUGUAUAUCUC it was 0.22; in that of UAACAGGGGGCCACAGCAUAAGCGUUCUCGUCGCAGCCCCUGUCAGAUUCUGGUGAAUCUGCGAAUUCUGCUGUAUAUCUC, 0.08; in that of UAACAGGGGGCCACAGCAUAAGCGUUCGCGUCGCAGCCCCUGUCAGAUUCUGGUGAAUCUGCGAAUUCUGCUGUAUAUCUC, 0.14.
As for UAACAGGGGGCCACAGCAUAAGCGUUCACGUCGCAGCCCCUGUCAGAAUCUGGUGAAUCUGCGAAUUCUGCUGUAUAUCUC, the figure is 0.2; as for UAACAGGGGGCCACAGCAUAAGCGUUCACGUCGCAGCCCCUGUCAGACUCUGGUGAAUCUGCGAAUUCUGCUGUAUAUCUC, 0.2.
In the case of UAACAGGGGGCCACAGCAUAGGCGUUCACGUCGCAGCCCCUGUCAGAUUCUGGUGAAUCUGCGAAUUCUGCUGUAUAUCUC it was 0.2; in that of UAACAGGGGGCCACAGCAUAAGCGUUCACGUCGCAGCCCCUGUCAGAUUCUGGUGAAUCUGCGAAUUCUGCUGUAUUUCUC, 0.12; in that of UAACAGGGGGCCACAGCAUAAGCGUUCACGUCGCAGACCCUGUCAGAUUCUGGUGAAUCUGCGAAUUCUGCUGUAUAUCUC, 0.31.
In the case of UAACAGGGGGCCACAGCAUAAGCGUUCACGUCGCAGUCCCUGUCAGAUUCUGGUGAAUCUGCGAAUUCUGCUGUAUAUCUC, the self-cleavage was 0.38.
In the case of UAACAGGGGGCCACAGCAUAAGCGUUCACGUGGCAGCCCCUGUCAGAUUCUGGUGAAUCUGCGAAUUCUGCUGUAUAUCUC it was 0.19; in that of UAACAGGGGGCCACAGCAUAAGCGUUCACGUCGCAGCCCCUGUUAGAUUCUGGUGAAUCUGCGAAUUCUGCUGUAUAUCUC, 0.18.
With UAACAGGGGGCCACAGCAUAAGCGUUCACGUCGCAGCCCCUGUAAGAUUCUGGUGAAUCUGCGAAUUCUGCUGUAUAUCUC, the self-cleavage was 0.43.
As for UAACAGGGGGCCACAGCAUAAGCGUUCACGUCGCAGCCCCUGUCAGAUUCUGGUGUAUCUGCGAAUUCUGCUGUAUAUCUC, the self-cleavage came to 0.14.
In the case of UAACAGGGGGCCACAGCAUAAGCGUUCACGUCGCAGCCCCUGUCAGAUUCUGGUGGAUCUGCGAAUUCUGCUGUAUAUCUC it was 0.5.
As to UAACAGGGGGCCACAGCAUAAGCGUUCACGCCGCAGCCCCUGUCAGAUUCUGGUGAAUCUGCGAAUUCUGCUGUAUAUCUC, the self-cleavage stood at 0.2.
As to UAACAGGGGGCCACAGCAUAAGCGUUCACGUCGCAGCCCCUAUCAGAUUCUGGUGAAUCUGCGAAUUCUGCUGUAUAUCUC, the self-cleavage is 0.18.
As for UAACAGGGGGCCACAGCAUAAGCGUUCACGUCGCAGCCCCUGUCAGAUACUGGUGAAUCUGCGAAUUCUGCUGUAUAUCUC, the figure is 0.08; as for UAACAGGGGGCCACAGCAUAAGCGUUCACGUCGCAGCCCCUGUCAGAUCCUGGUGAAUCUGCGAAUUCUGCUGUAUAUCUC, 0.15; as for UAACAGGGGGCCACAGCAUAAGCGCUCACGUCGCAGCCCCUGUCAGAUUCUGGUGAAUCUGCGAAUUCUGCUGUAUAUCUC, 0.08.
Take UAACAGGGGGCCACAGCAUAAGCGGUCACGUCGCAGCCCCUGUCAGAUUCUGGUGAAUCUGCGAAUUCUGCUGUAUAUCUC: the self-cleavage stood at 0.2.
As to UAACAGGGGGCCACAGCAUAAGCGAUCACGUCGCAGCCCCUGUCAGAUUCUGGUGAAUCUGCGAAUUCUGCUGUAUAUCUC, the self-cleavage was 0.19.
As to UAACAGGGGGCCACAGCAUAAGCGUUCACGUCGCUGCCCCUGUCAGAUUCUGGUGAAUCUGCGAAUUCUGCUGUAUAUCUC, the self-cleavage worked out at 0.15.
With UAACAGGGGGCCACAGCAUAAGCGUUCACGUCGCGGCCCCUGUCAGAUUCUGGUGAAUCUGCGAAUUCUGCUGUAUAUCUC, the self-cleavage was 0.63.
As for UAACAGGGGGCCACAGCAUAAGCGUUCACGUCGCAGCCCCUGUCAGAUUCUGGUGAAUCUGCGAAUUCUGCUGUUUAUCUC, the figure is 0.28; as for UAACAGGGGGCCACAGCAUAAGCGUUCACGUCGCAGCCCCUGUCAGAUUCUGGUGAGUCUGCGAAUUCUGCUGUAUAUCUC, 0.48; as for UAACAGGGGGCCACAGCAUAAGCGUUCACGUCGCAGCCCCUGUCAGAUUCUGGUGACUCUGCGAAUUCUGCUGUAUAUCUC, 0.19.
In the case of UAACAGGGGGCCACAGCACAAGCGUUCACGUCGCAGCCCCUGUCAGAUUCUGGUGAAUCUGCGAAUUCUGCUGCAUAUCUC it was 0.19; in that of UAACAGGGGGCCACAGCAUAAGCGUUCACGUCGCAGCCCCUGUCAGAUUCUGGUGAAUCCGCGAAUUCUGCUGUAUAUCUC, 0.28; in that of UAACAGGGGGCCACAGCAUAAGCGUUCACGUCGCAGCCCCUGUCAGAUUCUGGUGAAUCAGCGAAUUCUGCUGUAUAUCUC, 0.45.
As for UAACAGGGGGCCACAGCAUAAGCGUUCACGUCGCAGCCCCUGUCAGAUUCUGGUGAAUCUGCGAAUUCUGCUAUAUAUCUC, the figure is 0.51; as for UAACAGGGGGCCACAGCAUAAGCGUUCACGUCGCAGCCCCUGUCAGAUUCUGGUGAAUCUGCGAAUUCUGCUUUAUAUCUC, 0.56.
As to UAACAGGGGGCCACAGCAUAAGCGUUCACGUCGCAGCCCCUGUCAGAUUCUGGUGAAUCUGCGAUUUCUGCUGUAUAUCUC, the self-cleavage is 0.09.
In the case of UAACAGGGGGCCACAGCAUAAGCGUUCACGUCGCAGCCCCUGUCAGAUUCUGGUGAAUCUGCGAGUUCUGCUGUAUAUCUC it was 0.26.
In the case of UAACAGGGGGCCACAGCACAAGCGUUCACGUCGCAGCCCCUGUCAGAUUCUGGUGAAUCUGCGAAUUCUGCUGUAUACCUC it was 0.71.
As for UAACAGGGGGCCACAGCAUAAGCGUUCACGUCGCACCCCCUGUCAGAUUCUGGUGAAUCUGCGAAUUCUGCUGUAUAUCUC, the figure is 0.19; as for UAACAGGGGGCCACAGCAUAAGCGUUCACGUCGCAACCCCUGUCAGAUUCUGGUGAAUCUGCGAAUUCUGCUGUAUAUCUC, 0.18.
In the case of UAACAGGGGGCCACAGCAUGAGCGUUCACGUCGCAGCCCCUGUCAGAUUCUGGUGAAUCUGCGAAUUCUGCUGUAUAUCUC, the self-cleavage came to 0.29.
On to UAACAGGGGGCCACAGCAUUAGCGUUCACGUCGCAGCCCCUGUCAGAUUCUGGUGAAUCUGCGAAUUCUGCUGUAUAUCUC, for which the self-cleavage amounted to 0.42.
Turning to UAACAGGGGGCCACAGCAUAAGCGUUCACGUCGCAGCCCCUGUCAGAUUCUGGUGAAUCUGCGAAUUCUGCUGUAUAUCUC, the self-cleavage was determined as 0.27.
With UAACAGGGGGCCACAGCAUAAGCGUUCACGUCGCAGCCCCUGUCAGAUUCUGGUGAAUCUGCGAAUUCCGCUGUAUAUCUC, the self-cleavage was 0.09.
In the case of UAACAGGGGGCCACAGCAUAAGCGUUCACGUCGCAGCCCCUGUCAGAUUCUGGUGAAUCUGCGAAUUCAGCUGUAUAUCUC it was 0.27; in that of UAACAGGGGGCCACAGCAUAAGCGUUCACGUCGCAGCCCCUGUCGGAUUCUGGUGAAUCUGCGAAUUCUGCUGUAUAUCUC, 0.08; in that of UAACAGGGGGCCACAGCAUAAGCGUUCACGUCGCAGCCCCUGUCUGAUUCUGGUGAAUCUGCGAAUUCUGCUGUAUAUCUC, 0.2.
As for UAACAGGGGGCCACAGCAUAAGCGUUCACGUCGCAGCCCCUGUCCGAUUCUGGUGAAUCUGCGAAUUCUGCUGUAUAUCUC, the figure is 0.22; as for UAACAGGGGGCCACAGCACAAGCGUUCACGUCGCAGCCCCUGUCAGAUUCUGGUGAAUCCGCGAAUUCUGCUGUAUAUCUC, 0.15.
On to UAACAGGGGGCCACAGCACAAGCGUUCACGUCGCAGCCCCUGUCAGAUUCUGGUGAAUCAGCGAAUUCUGCUGUAUAUCUC, for which the self-cleavage was found to be 0.16.
In the case of UAACAGGGGGCCACAGCAUAAGCGUUCACGUCGCAGCCCCUGCCAGAUUCUGGUGAAUCUGCGAAUUCUGCUGUAUAUCUC it was 0.1; in that of UAACAGGGGGCCACAGCAUAAGCGUUCACGUCGCAGCCCCUGACAGAUUCUGGUGAAUCUGCGAAUUCUGCUGUAUAUCUC, 0.29; in that of UAACAGGGGGCCACAGCAUAAGCGUUCACGUCGCAGCCCAUGUCAGAUUCUGGUGAAUCUGCGAAUUCUGCUGUAUAUCUC, 0.21.
In the case of UAACAGGGGGCCACAGCAUAAGCGUUCACGUCGCAGCCCCUGUCAGAUUCUGGUGAAACUGCGAAUUCUGCUGUAUAUCUC it was 0.04; in that of UAACAGGGGGCCACAGCAUAAGCGUUCACGUCGCAGCCCCUGUCAGAUUCUGGUGAACCUGCGAAUUCUGCUGUAUAUCUC, 0.39; in that of UAACAGGGGGCCACAGCAUAAGCGUUCACGUCGCAGCCCCUGUCAGAUUCUGGUGAAGCUGCGAAUUCUGCUGUAUAUCUC, 0.12.
Consider UAACAGGGGGCCACAGCAUAAGCGUUCACGUCGCAGCCCCUGUCAGAUUCCGGUGAAUCUGCGAAUUCUGCUGUAUAUCUC, for which the self-cleavage is 0.22.
In the case of UAACAGGGGGCCACAGCAUAAGCGUUCACGUCGCAGCCCCUGUCAGAUUCAGGUGAAUCUGCGAAUUCUGCUGUAUAUCUC it was 0.18; in that of UAACAGGGGGCCACAGCAUAAGCGUUCACGUCGCAGCCCCUGUCAGAUUCUGGUGAAUCUGCGAAUACUGCUGUAUAUCUC, 0.13.
UAACAGGGGGCCACAGCAUAAGCGUUCACGUCGCAGCCCCUGUCAGAUUCUGGUGAAUCUGCGAAUCCUGCUGUAUAUCUC: the self-cleavage worked out at 0.13.
As for UAACAGGGGGCCACAGCAUAAGCGUUCACGUCGCAGCCCCUGUCAGAUUUUGGUGAAUCUGCGAAUUCUGCUGUAUAUCUC, the figure is 0.38; as for UAACAGGGGGCCACAGCAUAAGCGUUCACGUCGCAGCCCCUGUCAGAUUAUGGUGAAUCUGCGAAUUCUGCUGUAUAUCUC, 0.15; as for UAACAGGGGGCCACAGCAUAAGCGUUCACGUCGCAGCCCCUGUCAGAUUCUGGUGAAUCUGCUAAUUCUGCUGUAUAUCUC, 0.28.
Turning to UAACAGGGGGCCACAGCACAAGCGUUCACGUCGCAGCCCCUGUCAGAUUCUGGUGAAUCUGCGAAUCCUGCUGUAUAUCUC, the self-cleavage was determined as 0.21.
With UAACAGGGGGCCACAGCAUAAGCGUUCACGUCGCAGCCCCUGUCAGAUUCUGGUGAAUCUGCGAAUUCUGCUGUAUAUCUU, the self-cleavage turned out to be 0.34.
In the case of UAACAGGGGGCCACAGCAUAAGCGUUCACGUCGCAGCCCCUGUCAGAUUCUGGUGAAUCUGCGAAUUCUGCAGUAUAUCUC, the self-cleavage came out at 0.32.
In the case of UAACAGGGGGCCACAGCAUAAGCGUUCACGUCGCAGCCCCUGUCAGUUUCUGGUGAAUCUGCGAAUUCUGCUGUAUAUCUC, the self-cleavage was determined as 0.5.
As for UAACAGGGGGCCACAGCAUAAGCGUUCACGUCGCAGCCCCUGUCAGGUUCUGGUGAAUCUGCGAAUUCUGCUGUAUAUCUC, the figure is 0.22.
In the case of UAACAGGGGGCCACAGCAUAAGCGUUCACGUCGCAGCCCCUGUCAGAUUCUGGUGAAUCUGCGUAUUCUGCUGUAUAUCUC it was 0.15.
As for UAACAGGGGGCCACAGCAUAAGCGUUCACGUCGCAGCCCCUGUCAGAUUCUGGUGAAUCUCCGAAUUCUGCUGUAUAUCUC, the figure is 0.13; as for UAACAGGGGGCCACAGCAUAAGCGUUCACGUCGCAGCCCCUGUCAGAUUCUGGUGAAUCUACGAAUUCUGCUGUAUAUCUC, 0.3.
